Results: article PMC3184956, “How to Change the Oligomeric State of a Circular Protein Assembly: Switch from 11-Subunit to 12-Subunit TRAP Suggests a General Mechanism” (PLoS ONE, 2011)

How the values were obtained:
[1] = molecular target: Bacillus halodurans trp RNA-binding attenuation protein (TRAP) (Bacillus halodurans); assay: native MS; nanoflow electrospray, 100 mM ammonium acetate (pH 7.5), 10 µM L-tryptophan, protein 0.1–0.4 mg/ml
[2] = molecular target: Bacillus halodurans trp RNA-binding attenuation protein (TRAP) (Bacillus halodurans); assay: crystal structure; hanging drop vapor diffusion at 18°C, protein with 5-15 mM L-tryptophan; data at 120 K; ring oligomer built from the asymmetric unit and crystallographic symmetry
[3] = molecular target: Bacillus stearothermophilus E71stop TRAP (Bacillus stearothermophilus); assay: native MS; nanoflow electrospray, 100 mM ammonium acetate (pH 7.5), 10 µM L-tryptophan, protein 0.1–0.4 mg/ml
[4] = molecular target: Bacillus stearothermophilus E71stop TRAP (Bacillus stearothermophilus); assay: crystal structure; hanging drop vapor diffusion at 18°C, protein with 5-15 mM L-tryptophan; data at 120 K; ring oligomer built from the asymmetric unit and crystallographic symmetry
[5] = molecular target: the molecule itself; assay: as above
[6] = molecular target: the molecule itself; assay: native MS; nanoflow electrospray, 100 mM ammonium acetate (pH 7.5), 10 µM L-tryptophan, protein 0.1–0.4 mg/ml

For “Bacillus halodurans trp RNA-binding attenuation protein (TRAP) (natural protein)”, which stoichiometry N [1] is on record?
Its stoichiometry N is 12 subunits.

And the stoichiometry N [2]?
Its stoichiometry N is 12 subunits.

“Bacillus stearothermophilus E71stop TRAP (domain or fragment)” was tested. Which stoichiometry N [3] did it give?
The stoichiometry N was 12 subunits.

And the stoichiometry N [4]?
Its stoichiometry N is 12 subunits.

B1: Bacillus subtilis K71stop TRAP (domain or fragment, UniProt P19466 1-71, looked up)
chain: MNQKHSSDFVVIKAVEDGVNVIGLTRGTDTKFHHSEKLDKGEVIIAQFTEHTSAIKVRGEALIQTAYGEMK
notes: TRAP of Bacillus subtilis with the last four amino acids removed from the C-terminus (K71stop); Homo-12-mer; also called B. subtilis TRAP K71stop; mutant B. subtilis TRAP; source: QuikChange on a pET9a plasmid containing the wild type gene; produced and purified as described previously [10]; size-exclusion chromatography (Superdex 200); copies: 12
For B1, which “stoichiometry N” value [5] is on record?
The value was 12 subunits.

B2: Bacillus subtilis V11L TRAP (natural protein, UniProt P19466 1-75, looked up)
chain: MNQKHSSDFVLIKAVEDGVNVIGLTRGTDTKFHHSEKLDKGEVIIAQFTEHTSAIKVRGEALIQTAYGEMKSEKK
notes: TRAP of Bacillus subtilis with the mutation Val11 to Leu; Homo-12-mer by native mass spectrometry; could not be crystallised; also called V11L mutant; B. subtilis V11L TRAP; source: QuikChange on a pET9a plasmid containing the wild type gene; produced and purified as described previously [10]; copies: 12
How did the “stoichiometry N” value [6] turn out when B2 was run?
The value was 12 subunits.

B3: Bacillus stearothermophilus TRAP, wild type (natural protein, UniProt Q9X6J6 1-74, looked up)
chain: MYTNSDFVVIKALEDGVNVIGLTRGADTRFHHSEKLDKGEVLIAQFTEHTSAIKVRGKAYIQTRHGVIESEGKK
notes: Homo-11-mer; control of the native mass spectrometry; also called B. stearothermophilus TRAP; TRAP11; source: pET9a plasmid containing the wild type gene; produced and purified as described previously [10]; copies: 11
For B3, which “stoichiometry N” value [6] is on record?
The value was 11 subunits.
